As usually defined, the Kd is the equilibrium constant for the complex coming apart. In general, EC50 refers to the concentration that produces a half-maximal response.

The values below come from patent US20060286035A1 (CYTOS BIOTECHNOLOGY, published 2006).

The target of assay [1] is T1, T-cadherin (mouse, UniProt Q9WTR5 139-693).
T1 construct: whole, on cells; also called adiponectin receptor; pGF-T-cadherin
T1 sequence (looked up): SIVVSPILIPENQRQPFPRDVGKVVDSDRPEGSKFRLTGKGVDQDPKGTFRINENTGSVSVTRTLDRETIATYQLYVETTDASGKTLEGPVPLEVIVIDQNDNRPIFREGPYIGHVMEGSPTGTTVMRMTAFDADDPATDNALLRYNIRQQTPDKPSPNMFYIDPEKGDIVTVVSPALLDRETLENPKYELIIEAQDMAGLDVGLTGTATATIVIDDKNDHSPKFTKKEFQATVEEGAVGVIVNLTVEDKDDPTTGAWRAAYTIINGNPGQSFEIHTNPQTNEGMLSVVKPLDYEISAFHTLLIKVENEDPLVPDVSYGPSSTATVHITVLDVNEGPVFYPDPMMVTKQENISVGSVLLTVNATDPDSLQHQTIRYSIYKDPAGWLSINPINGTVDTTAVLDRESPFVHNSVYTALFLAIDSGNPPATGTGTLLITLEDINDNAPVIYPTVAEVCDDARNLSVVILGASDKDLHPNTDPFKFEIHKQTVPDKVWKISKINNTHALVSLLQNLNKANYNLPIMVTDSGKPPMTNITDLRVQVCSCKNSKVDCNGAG
In words: flow cytometry titration on 293-EBNA cells transfected with pGF-T-cadherin; half-maximal concentration divided by the molecular weight. As to the method: (§1) 293-EBNA cells were transfected with pGF-T-cadherin. After two days the cells were harvested and stained with decreasing amounts of Acrp30-FLAG-C (50, 25, 12.5, 6.3, 3.1, 1.6, 0.8, 0.4 and 0 μg/ml) as described in example 6. To evaluate the dissociation constant, the geometric mean fluorescence (GMFl) of the GFP positive population was determined using FACS Winmdi software. The GMFl was then normalized as follows: (GMFL of the sample minus GMFl of samples stained with secondary reagents only) divided by maximal GMFL. The protein concentration is shown on the X axis and the normalised GMFL is shown on the Y axis.
(§2) In order to determine the dissociation constant of the adiponectin-T-cadherin interaction, 293-EBNA cells were transfected with pGF-T-cadherin as described in example 6. […] The cells were then analysed by FACS using a FACS Calibur (Becton Dickinson). To determine the binding affinity, the geometric mean fluorescence of the GFP positive population was determined using FACS WINmdi software. The geometric mean fluorescence was then normalised by deducing the mean fluorescence of the sample which was stained with the secondary reagents only from the different samples and then all the values were divided by the maximal fluorescence. The normalised values for the mean fluorescence were than plotted against the concentration of Acrp30-FLAG-C. […]
A general note: A flow cytometer gives signals particle by particle.

Assay [2] has as its target T1, T-cadherin. In words: flow cytometry titration on 293-EBNA cells transfected with pGF-T-cadherin; normalised geometric mean fluorescence of the GFP positive population. The method, then: as §1, §2

B1: Acrp30-FLAG-C (ligand)
chain: DADPEDDVTTTEELAPALVPPPKGTCAGWMAGIPGHPGHNGTPGRDGRDGTPGEKGEKGDAGLLGPKGETGDVGVTGAEGPRGFPGTPGRKGEPGEAAYMYRSAFSVGLETRVTVPNVPIRFTKIFYNQQNHYDGSTGKFYCNIPGLYYFSYHITVYMKDVKVSLFKKDKAVLFTYDQYQEKNVDQASGSVLLHLEVGDQVWLQVYGDGDHNGLYADNVNDSTFTGFLLYHDTNSLDDYKDDDDK
notes: The molecular weight used for the Kd is 26546 g/mol (monomer); Three bands on SDS-PAGE from differential glycosylation; also called Adiponectin-bait Acrp30-FLAG-C; adiponectin
On to B1, for which the Kd with T-cadherin [1] amounted to 83 nM. In addition, the EC50 with T-cadherin [2] stood at 2.2 µg/mL.
